From patent publication US20230212543A1 (GENOVIS, published 2023)
Where no end group is shown, it is not given here.

Key:
H4062 = target: T1, H4062; assay: peptide mix on immobilised double-mutant resin, LC/MS of load, flow through and eluate (FIG. 19A)
T1 construct: Non-glycosylated peptide
T1 peptide: KKLVFFA

H2686 = target: T2, H2686; assay: as above
T2 construct: Non-glycosylated peptide
T2 peptide: YIYGSFK

glycodrosocin (GD) = target: T3, glycodrosocin (GD) (not fully specified (residue 11)); assay: as above
T3 construct: also called glycodrosocin peptide
T3 peptide: GKPRPYSPRPTSHPRPIRV

H8390 = target: T4, H8390; assay: as above
T4 construct: Non-glycosylated peptide
T4 peptide: FLPLILGKLVKGLL

[1] = target: T5, BSA (bovine serum albumin) (bovine, UniProt P02769 25-607); assay: protein mix on immobilised LSH205A/E206A resin, SDS-PAGE (FIG. 11B)
T5 construct: Non-glycosylated control protein

[2] = target: T6, TNFαR (the TNFα binding part of etanercept) (human, UniProt P20333 23-257, O-glycosylated; pretreated with sialidase mixture in the binding assay); assay: as above
T6 construct: also called TNFaR2; TNFaR
T6 sequence (looked up): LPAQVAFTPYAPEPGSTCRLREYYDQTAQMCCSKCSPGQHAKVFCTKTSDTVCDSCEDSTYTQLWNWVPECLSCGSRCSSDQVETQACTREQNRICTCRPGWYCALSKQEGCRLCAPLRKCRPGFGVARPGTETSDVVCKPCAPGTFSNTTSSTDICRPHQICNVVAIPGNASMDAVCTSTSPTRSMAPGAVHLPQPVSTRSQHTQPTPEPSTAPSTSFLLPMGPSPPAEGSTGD

T5 sequence (P02769 25-607 limits assumed): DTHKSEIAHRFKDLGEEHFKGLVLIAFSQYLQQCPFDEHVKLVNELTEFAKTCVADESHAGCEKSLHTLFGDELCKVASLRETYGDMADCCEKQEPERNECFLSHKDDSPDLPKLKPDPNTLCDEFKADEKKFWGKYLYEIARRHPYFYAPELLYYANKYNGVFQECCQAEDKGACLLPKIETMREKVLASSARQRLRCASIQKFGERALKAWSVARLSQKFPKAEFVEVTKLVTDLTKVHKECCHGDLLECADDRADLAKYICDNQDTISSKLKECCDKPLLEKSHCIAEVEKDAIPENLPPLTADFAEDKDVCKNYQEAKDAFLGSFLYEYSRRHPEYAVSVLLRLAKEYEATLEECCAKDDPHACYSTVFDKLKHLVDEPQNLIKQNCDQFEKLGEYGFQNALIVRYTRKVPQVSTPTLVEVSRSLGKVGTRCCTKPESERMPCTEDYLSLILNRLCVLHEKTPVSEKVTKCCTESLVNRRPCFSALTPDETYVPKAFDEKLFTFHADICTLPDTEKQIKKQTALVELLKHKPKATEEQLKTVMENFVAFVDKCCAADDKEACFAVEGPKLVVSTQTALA

B1: LSH205A/E206A (designed binder)
chain: MEVTVPDALKDRIALKKTARQLNIVYFLGSDTEPVPDYERRLSELLLYLQQFYGKEMQRHGYGARSFGLDIKSPGRVNIIEYKAKNPAAHYPYENGGGWKAAQELDEFFKAHPDRKKSQHTLIIMPTWNDEKNGPDNPGGVPFYGMGRNCFALDYPAFDIKHLGQKTREGRLLTKWYGGMAAALGHGLNLPHNHQTASDGKKYGTALMGSGNYTFGTSPTFLTPASCALLDACEVFSVTPSQQFYEGKPEVEVGDVAISFKGDQILVSGNYKSPQTVKALNVYIQDPPYAVNQDYDAVSFSRRLGKKSGKFSMKIDKKELEGLNNNEFRISLMFILANGLHMQKHFTFHWDALQDYRDGSKSGSGHHHHHH
notes: also called LSHE206AA; Amuc1119H205A/E206A
binding result (H4062): no binding | binding result (H2686): no binding | binding result (glycodrosocin (GD)): binds | binding result (H8390): no binding | binding result [1]: no binding | binding result [2]: binds
